One assay has as its target T1, miR2-FL-WT-FLAG (mouse, UniProt Q80WQ6 1-827).
T1 construct: on MEF-DKO cells
T1 sequence: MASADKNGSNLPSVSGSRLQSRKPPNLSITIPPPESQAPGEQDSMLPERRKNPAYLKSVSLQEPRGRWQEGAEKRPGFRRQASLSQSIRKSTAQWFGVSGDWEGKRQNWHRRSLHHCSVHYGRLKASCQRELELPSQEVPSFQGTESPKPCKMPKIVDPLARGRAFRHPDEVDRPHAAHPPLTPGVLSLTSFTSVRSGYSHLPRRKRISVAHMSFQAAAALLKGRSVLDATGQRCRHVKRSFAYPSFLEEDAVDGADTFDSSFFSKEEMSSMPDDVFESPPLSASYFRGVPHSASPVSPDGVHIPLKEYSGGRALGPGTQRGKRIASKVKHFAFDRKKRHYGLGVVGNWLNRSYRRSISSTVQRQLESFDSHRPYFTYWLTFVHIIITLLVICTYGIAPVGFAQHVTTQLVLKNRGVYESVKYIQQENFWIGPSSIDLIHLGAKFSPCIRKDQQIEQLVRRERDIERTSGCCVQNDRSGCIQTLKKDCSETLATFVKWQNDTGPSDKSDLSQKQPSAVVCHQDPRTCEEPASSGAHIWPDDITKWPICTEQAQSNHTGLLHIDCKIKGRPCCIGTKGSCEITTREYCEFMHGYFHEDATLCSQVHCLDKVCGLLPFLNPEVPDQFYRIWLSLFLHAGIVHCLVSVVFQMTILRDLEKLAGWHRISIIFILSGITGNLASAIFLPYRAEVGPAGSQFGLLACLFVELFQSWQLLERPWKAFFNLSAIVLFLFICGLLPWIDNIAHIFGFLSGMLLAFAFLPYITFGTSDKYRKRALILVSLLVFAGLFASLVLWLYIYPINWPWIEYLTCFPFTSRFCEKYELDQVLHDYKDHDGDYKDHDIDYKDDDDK
The assay can be described thus: FACS on MEF-DKO-miR2-FL-WT-FLAG cells.

For a further assay, the target named is T2, hiR2-FL-L589P-T7 (human, UniProt Q6PJF5 1-856).
T2 sequence: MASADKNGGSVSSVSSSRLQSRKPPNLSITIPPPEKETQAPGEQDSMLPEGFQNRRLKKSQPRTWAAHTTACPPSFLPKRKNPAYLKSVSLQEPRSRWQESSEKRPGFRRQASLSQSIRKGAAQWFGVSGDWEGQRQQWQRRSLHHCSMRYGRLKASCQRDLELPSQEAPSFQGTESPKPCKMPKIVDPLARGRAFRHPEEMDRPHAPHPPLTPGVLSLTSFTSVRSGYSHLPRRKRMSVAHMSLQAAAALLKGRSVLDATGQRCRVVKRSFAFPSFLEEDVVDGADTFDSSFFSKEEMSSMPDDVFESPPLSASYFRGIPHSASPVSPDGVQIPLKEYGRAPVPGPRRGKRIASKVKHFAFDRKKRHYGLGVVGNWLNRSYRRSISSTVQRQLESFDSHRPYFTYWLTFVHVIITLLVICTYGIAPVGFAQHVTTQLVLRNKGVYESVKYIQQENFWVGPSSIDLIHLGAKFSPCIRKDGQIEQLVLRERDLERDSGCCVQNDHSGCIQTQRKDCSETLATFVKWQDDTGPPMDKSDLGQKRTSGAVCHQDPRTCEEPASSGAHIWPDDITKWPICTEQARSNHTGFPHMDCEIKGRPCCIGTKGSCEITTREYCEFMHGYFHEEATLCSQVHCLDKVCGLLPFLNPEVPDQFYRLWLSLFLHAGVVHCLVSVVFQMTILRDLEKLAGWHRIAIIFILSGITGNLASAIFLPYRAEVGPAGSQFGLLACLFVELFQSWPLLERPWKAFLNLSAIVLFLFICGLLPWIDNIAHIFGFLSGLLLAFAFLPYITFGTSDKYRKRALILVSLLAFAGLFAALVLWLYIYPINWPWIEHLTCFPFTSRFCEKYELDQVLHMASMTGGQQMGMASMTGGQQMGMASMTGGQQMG
Kind of assay: FACS on MEF-DKO cells.

Another assay concerns the target T3, hiR2-FL-I566E-T7 (human, UniProt Q6PJF5 1-856).
T3 construct: on MEF-DKO cells; also called hiR2-FL-1566E-T7
T3 sequence: T2 sequence with I566E, P589L
The assay can be described thus: FACS on MEF-DKO cells.

Positions count from the first letter of the chain named.

B1: antibody 3 (antibody, V domains shown)
VH: QVTLKESGPGILQPSQTLSLTCSFSGFSLTTFAMGIGWVRQPSGKGLEWLAHIWWDGEKYNNPVLKSRLTISKDTSKNQVFLRIANVDTPDTATYYCARISSIYYIIDNWGQGTSVTVSS
VL: DIVLTQSPATLSVTPGHSVSLSCRASQSISNNLHWYQKKSHESPRLLIKYVSQSISGIPSRFSGSGSGTDFTLSINSVETEDFGMYFCQQSYNWPLTFGAGTKLELK
notes: mouse IgG, kappa light chain; also called clone #3; purified antibody 3
Consider B1, for which, in the assay with miR2-FL-WT-FLAG, the binding result is recorded as “no binding (tested: 3 µg/ml)”.

B2: antibody 50 (antibody, V domains shown)
VH: QVQLQQSGAELVRPGASVKVSCKASGYAFSNYLIEWVKQRPGQGLEWIGVINPGSGFTKYNEKFKGKATLTADKSSSTAYMQLSSLTSEDSAVYFCARGLYRAMDYWGQGTSVTVSS
VL: DIQMTQSPASQSASLGESVTITCLASQTIGTWLAWYQQKPGKSPQLLIYAAASLADGVPSRFSGGGSGTKFSFKISSLQAEDFVNYYCQQIYSTPYTFGGGTKLEIK
notes: mouse IgG, kappa light chain; also called clone #50; purified antibody 50
For B2, the binding result with hiR2-FL-L589P-T7 was “no binding (tested: 3 µg/ml)”.

B3: antibody 5 (antibody, V domains shown)
VH: QVTLKESGPGILQPSQTLSLTCSFSGFSLSTFGMGVGWIRQPSGKGLEWLAHIWWDDEKYYNSALKSRLTISKATSKNQAFLKIANVDTADTATYYCARISNYGSNYWYFNVWGTGTTVTVSS
VL: QVVLTQSPALMSASPGEKVTMTCSAGSSVSCMYWYQQKPGSSPRVLIYDTSNLASGVPARFTGSGSGTSYSLTISRMEAEDAASYYCQQWNSYPLTFGAGTKLELK
notes: mouse IgG, kappa light chain; also called clone #5; purified antibody 5
Turning to B3, the binding result in the assay with hiR2-FL-I566E-T7 was “no binding (tested: 3 µg/ml)”.
